In patent US20160033523A1 (NOVOZYMES BIOPHARMA DK A S, published 2016):

Tests used:
[1] = biological target: T1, Soluble mouse FcRn, GST-tagged, with human beta2-microglobulin (mouse; Schistosoma japonicum; human, UniProt P08515 1-218 = GST); experiment: SPR, albumin over immobilized GST-FcRn, pH 6.0, steady state
T1 construct: also called smFcRn
Method: (§1) SPR experiments were carried out using a Biacore 3000 instrument (GE Healthcare). Flow cells of CM5 sensor chips were coupled with soluble FcRn from one of the following species, human (shFcRn), rat (srFcRn), mouse (smFcRn), rhesus monkey (srmFcRn), dog (dFcRn) or pig (pFcRn) (˜900-2500 resonance units (RU)) using GE Healthcare amine coupling chemistry as per the manufacturer's instructions. The coupling was performed by injecting 2 or 10 μg/ml FcRn in 10 mM sodium acetate pH 5.0 (GE healthcare). Phosphate buffer (67 mM phosphate buffer, 0.15 M NaCl, 0.005% Tween 20) at pH 6.0) was used as running buffer and dilution buffer. Regeneration of the surfaces were done using injections of HBS-EP buffer (0.01 M HEPES, 0.15 M NaCl, 3 mM EDTA, 0.005% surfactant P20) at pH 7.4 (GE Healthcare). For determination of binding kinetics, serial dilutions of albumin (10-0.3 μM) were injected over immobilized receptors at a constant flow rate (50 μl/min) at 25° C. In all experiments, data were zero adjusted and the reference cell subtracted.

[2] = biological target: T2, Soluble rat FcRn, GST-tagged, with human beta2-microglobulin (rat; Schistosoma japonicum; human, UniProt P08515 1-218 = GST); experiment: as above
T2 construct: also called srFcRn
Method: as §1

[3] = biological target: T3, Soluble dog FcRn, GST-tagged, with human beta2-microglobulin (dog; Schistosoma japonicum; human, UniProt P08515 1-218 = GST); experiment: SPR, albumin over immobilized GST-FcRn, pH 6.0, 1:1 model
T3 construct: also called dFcRn
Method: as §1

[4] = biological target: T1, Soluble mouse FcRn, GST-tagged, with …; experiment: as above
Method: as §1

[5] = biological target: T4, Soluble rhesus monkey FcRn, GST-tagged, with human beta2-microglobulin (rhesus monkey; Schistosoma japonicum; …, UniProt P08515 1-218 = GST); experiment: as above
T4 construct: also called srmFcRn; soluble rhesus macaque FcRn
Method: as §1

[6] = biological target: T2, Soluble rat FcRn, GST-tagged, with …; experiment: as above
Method: as §1

[7] = biological target: T5, Soluble pig FcRn, GST-tagged, with human beta2-microglobulin (Example 2) (pig; Schistosoma japonicum; human, UniProt P08515 1-218 = GST); experiment: as above
T5 construct: also called pFcRn; spFcRn
Method: as §1

[8] = biological target: T6, Wild type cynomolgus macaque serum albumin (cynomolgus macaque, UniProt A2V9Z4 24-608); experiment: SPR, albumin over immobilized His-FcRn, pH 5.5, 1:1 Langmuir
T6 construct: also called CSA; native cyno albumin
T6 sequence (A2V9Z4 24-608): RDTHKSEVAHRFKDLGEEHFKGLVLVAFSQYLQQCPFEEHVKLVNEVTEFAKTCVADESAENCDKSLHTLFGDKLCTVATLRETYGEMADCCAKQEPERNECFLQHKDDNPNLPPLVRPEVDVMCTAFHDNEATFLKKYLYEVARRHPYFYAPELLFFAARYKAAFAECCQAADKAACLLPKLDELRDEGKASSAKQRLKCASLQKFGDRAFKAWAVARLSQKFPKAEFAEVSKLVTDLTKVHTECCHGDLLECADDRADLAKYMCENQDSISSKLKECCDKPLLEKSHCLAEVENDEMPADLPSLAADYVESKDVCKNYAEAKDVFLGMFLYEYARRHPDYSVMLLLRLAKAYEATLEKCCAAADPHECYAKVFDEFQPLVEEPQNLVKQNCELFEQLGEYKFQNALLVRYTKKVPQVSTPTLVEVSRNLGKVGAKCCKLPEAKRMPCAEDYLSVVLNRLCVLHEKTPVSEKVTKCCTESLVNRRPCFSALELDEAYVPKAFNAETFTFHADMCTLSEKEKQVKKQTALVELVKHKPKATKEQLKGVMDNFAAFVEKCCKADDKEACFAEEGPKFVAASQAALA
Method: as §1
The SPR assay was conducted with the following variations to the assay described in the Materials and Method section:
The soluble FcRn receptors were synthesized by GeneArt and expressed in HEK cells. The soluble FcRn contained a HIS-tag on the C-terminal of the Beta-chain instead of a GST on the heavy chain and the beta-chain used was the native beta-chain of the animal (see Materials and Method section for the corresponding sequences). The soluble FcRn was purified by a HIS trap column followed by an additional purification using an IgG column. The soluble FcRn receptor was diluted to 20 μg/mL. The phosphate buffer used as running buffer in the SPR assay was at pH 5.5 instead of pH 6.0. […] 1:1 Langmuir or Steady state model was used.

B1: Wild type rat serum albumin (ligand)
chain: EAHKSEIAHRFKDLGEQHFKGLVLIAFSQYLQKCPYEEHIKLVQEVTDFAKTCVADENAENCDKSIHTLFGDKLCAIPKLRDNYGELADCCAKQEPERNECFLQHKDDNPNLPPFQRPEAEAMCTSFQENPTSFLGHYLHEVARRHPYFYAPELLYYAEKYNEVLTQCCTESDKAACLTPKLDAVKEKALVAAVRQRMKCSSMQRFGERAFKAWAVARMSQRFPNAEFAEITKLATDVTKINKECCHGDLLECADDRAELAKYMCENQATISSKLQACCDKPVLQKSQCLAEIEHDNIPADLPSIAADFVEDKEVCKNYAEAKDVFLGTFLYEYSRRHPDYSVSLLLRLAKKYEATLEKCCAEGDPPACYGTVLAEFQPLVEEPKNLVKTNCELYEKLGEYGFQNAVLVRYTQKAPQVSTPTLVEAARNLGRVGTKCCTLPEAQRLPCVEDYLSAILNRLCVLHEKTPVSEKVTKCCSGSLVERRPCFSALTVDETYVPKEFKAETFTFHSDICTLPDKEKQIKKQTALAELVKHKPKATEDQLKTVMGDFAQFVDKCCKAADKDNCFATEGPNLVARSKEALA
notes: also called RSA; RSA Wt
In the case of B1, the Kd [1] is reported as 2.6 µM, the Kd [2] is reported as 4.1 µM and the Kd [3] is reported as 5.8 µM. For the same binder, the koff [3] was 0.048 s⁻¹, the kon [3] was 8300 M⁻¹ s⁻¹ and the Kd [4] was 2.6 µM. The koff [4] was 0.0341 s⁻¹, the kon [4] was 13000 M⁻¹ s⁻¹ and the Kd [5] was 2.2 µM. The koff [5] was 0.0101 s⁻¹, the kon [5] was 4500 M⁻¹ s⁻¹ and the Kd [6] was 3.2 µM. For the same binder, the koff [6] was 0.026 s⁻¹, the kon [6] was 7600 M⁻¹ s⁻¹ and the Kd [7] was 6.4 µM. It also gave a koff [7] of 0.071 s⁻¹ and a kon [7] of 11000 M⁻¹ s⁻¹.

B2: Soluble cynomolgus macaque FcRn with cynomolgus beta2-microglobulin, HIS-tagged (receptor)
chain: AESHLSLLYHLTAVSSPAPGTPAFWVSGWLGPQQYLSYDSLRGQAEPCGAWVWENQVSWYWEKETTDLRIKEKLFLEAFKALGGKGPYTLQGLLGCELSPDNTSVPTAKFALNGEEFMNFDLKQGTWGGDWPEALAISQRWQQQDKAANKELTFLLFSCPHRLREHLERGRGNLEWKEPPSMRLKARPGNPGFSVLTCSAFSFYPPELQLRFLRNGMAAGTGQGDFGPNSDGSFHASSSLTVKSGDEHHYCCIVQHAGLAQPLRVELETPAKSS
b2m: IQRTPKIQVYSRHPPENGKPNFLNCYVSGFHPSDIEVDLLKNGEKMGKVEHSDLSFSKDWSFYLLYYTEFTPNEKDEYACRVNHVTLSGPRTVKWDRDM
notes: Synthesized by GeneArt, expressed in HEK cells; also called CynoFcRn; Cyno FcRn; not shown: HIS-tag on the C-terminal of the beta-chain
B2 showed a Kd [8] of 35 µM.
